The target in this test is amyloid beta monomer (Homo sapiens, UniProt P05067). As to the kind of experiment: SPR. For orientation: In SPR one partner is held on a chip, and binding of the other changes the refractive index at the surface.

The values below come from paper PMC5009806 (2016).

B1: Gantenerumab (antibody, V domains shown)
VH: QVELVESGGGLVQPGGSLRLSCAASGFTFSSYAMSWVRQAPGKGLEWVSAINASGTRTYYADSVKGRFTISRDNSKNTLYLQMNSLRAEDTAVYYCARGKGNTHKPYGYVRYFDVWGQGTLVTVSS
VL: DIVLTQSPATLSLSPGERATLSCRASQSVSSSYLAWYQQKPGQAPRLLIYGASSRATGVPARFSGSGSGTDFTLTISSLEPEDFATYYCLQIYNMPITFGQGTKVEIK
Usually Kd stands for the free concentration of one partner at which half of the binding sites on the other are occupied at equilibrium, for simple one-to-one binding. Lower therefore signals higher affinity. On to B1, for which the Kd turned out to be 18 nM.
